{
  "source": "patent US20100136660A1",
  "about": "(published 2010)",
  "binders": {"B1": {"name": "human scFv VH14.1/VL14.1 (lysozyme binder from unimmunized library) (scFv, V domains shown)", "VH": "QVQLQESGPGLVKPSETLSLVCTVSGGSLSFSYWGWIRQPPGKGLEWIGYISHRGTDYNSSLQSRVTISADTSKNQFSLKLSSVTAADTAVYYCARSFSNSFFFGYWGQGT", "VL": "SSELTQDPAVSVAFGQTVRITCQGDSLRSSYASWYQQKPGQAPLLVIYGENSRPSGIPDRFSGSSSGNTASLTITGAQAEDEADYYCNSRDSRGTHLEVFGG", "notes": "scFv on phage from pHEN1"}, "B2": {"name": "human scFv VH3.5/VL3.5 (BSA binder from unimmunized library) (scFv, V domains shown)", "VH": "QVQLVQSGGGVVQPGRSLRLSCAASGFTFSSYGMHWVRQAPGKGLEWVAVISYDGSNKYYADSVKGRFTISRDNSKNTLYLQMNSLRAEDTAVYYCAKTGYSSGWGYFDYWGQGT", "VL": "SSELTQDPAVSVALGQTVRITCQGDSLRSYYASWYQQKPGQAPVLVIYGKNNRPSGIPDRFSGSSSGNTASLTITGAQAEDEADYYCNSRDSSGNHVVFGG"}, "B3": {"name": "human scFv VH13.1/VL13.1 (lysozyme binder from unimmunized library) (scFv, V domains shown)", "VH": "QVQLVQSGAEVKKPGQSLMISCQGSGYSFSNYWIGWVRQMPGKGLEWMGIIYPGDSDTRYSPSFQGQVTISADKSISTAYLHWSSLKASDTALYYCARLVGGTPAYWGQGT", "VL": "HVILTQPASVSGSPGQSITISCTGSSRDVGGYNYVSWYQHHPGKAPKLLISEVTNRPSGVSNRFSGSKSGNTASLTISGLQAEDEADYFCASYTSSKTYVFGG", "notes": "scFv on phage from pHEN1"}},
  "data": [
    {"target": "T1, bovine thyroglobulin (Sigma) (bovine, UniProt P01267 20-2769)", "T1 construct": "the same entry is used", "T1 sequence (P01267 20-2769 limits assumed)": "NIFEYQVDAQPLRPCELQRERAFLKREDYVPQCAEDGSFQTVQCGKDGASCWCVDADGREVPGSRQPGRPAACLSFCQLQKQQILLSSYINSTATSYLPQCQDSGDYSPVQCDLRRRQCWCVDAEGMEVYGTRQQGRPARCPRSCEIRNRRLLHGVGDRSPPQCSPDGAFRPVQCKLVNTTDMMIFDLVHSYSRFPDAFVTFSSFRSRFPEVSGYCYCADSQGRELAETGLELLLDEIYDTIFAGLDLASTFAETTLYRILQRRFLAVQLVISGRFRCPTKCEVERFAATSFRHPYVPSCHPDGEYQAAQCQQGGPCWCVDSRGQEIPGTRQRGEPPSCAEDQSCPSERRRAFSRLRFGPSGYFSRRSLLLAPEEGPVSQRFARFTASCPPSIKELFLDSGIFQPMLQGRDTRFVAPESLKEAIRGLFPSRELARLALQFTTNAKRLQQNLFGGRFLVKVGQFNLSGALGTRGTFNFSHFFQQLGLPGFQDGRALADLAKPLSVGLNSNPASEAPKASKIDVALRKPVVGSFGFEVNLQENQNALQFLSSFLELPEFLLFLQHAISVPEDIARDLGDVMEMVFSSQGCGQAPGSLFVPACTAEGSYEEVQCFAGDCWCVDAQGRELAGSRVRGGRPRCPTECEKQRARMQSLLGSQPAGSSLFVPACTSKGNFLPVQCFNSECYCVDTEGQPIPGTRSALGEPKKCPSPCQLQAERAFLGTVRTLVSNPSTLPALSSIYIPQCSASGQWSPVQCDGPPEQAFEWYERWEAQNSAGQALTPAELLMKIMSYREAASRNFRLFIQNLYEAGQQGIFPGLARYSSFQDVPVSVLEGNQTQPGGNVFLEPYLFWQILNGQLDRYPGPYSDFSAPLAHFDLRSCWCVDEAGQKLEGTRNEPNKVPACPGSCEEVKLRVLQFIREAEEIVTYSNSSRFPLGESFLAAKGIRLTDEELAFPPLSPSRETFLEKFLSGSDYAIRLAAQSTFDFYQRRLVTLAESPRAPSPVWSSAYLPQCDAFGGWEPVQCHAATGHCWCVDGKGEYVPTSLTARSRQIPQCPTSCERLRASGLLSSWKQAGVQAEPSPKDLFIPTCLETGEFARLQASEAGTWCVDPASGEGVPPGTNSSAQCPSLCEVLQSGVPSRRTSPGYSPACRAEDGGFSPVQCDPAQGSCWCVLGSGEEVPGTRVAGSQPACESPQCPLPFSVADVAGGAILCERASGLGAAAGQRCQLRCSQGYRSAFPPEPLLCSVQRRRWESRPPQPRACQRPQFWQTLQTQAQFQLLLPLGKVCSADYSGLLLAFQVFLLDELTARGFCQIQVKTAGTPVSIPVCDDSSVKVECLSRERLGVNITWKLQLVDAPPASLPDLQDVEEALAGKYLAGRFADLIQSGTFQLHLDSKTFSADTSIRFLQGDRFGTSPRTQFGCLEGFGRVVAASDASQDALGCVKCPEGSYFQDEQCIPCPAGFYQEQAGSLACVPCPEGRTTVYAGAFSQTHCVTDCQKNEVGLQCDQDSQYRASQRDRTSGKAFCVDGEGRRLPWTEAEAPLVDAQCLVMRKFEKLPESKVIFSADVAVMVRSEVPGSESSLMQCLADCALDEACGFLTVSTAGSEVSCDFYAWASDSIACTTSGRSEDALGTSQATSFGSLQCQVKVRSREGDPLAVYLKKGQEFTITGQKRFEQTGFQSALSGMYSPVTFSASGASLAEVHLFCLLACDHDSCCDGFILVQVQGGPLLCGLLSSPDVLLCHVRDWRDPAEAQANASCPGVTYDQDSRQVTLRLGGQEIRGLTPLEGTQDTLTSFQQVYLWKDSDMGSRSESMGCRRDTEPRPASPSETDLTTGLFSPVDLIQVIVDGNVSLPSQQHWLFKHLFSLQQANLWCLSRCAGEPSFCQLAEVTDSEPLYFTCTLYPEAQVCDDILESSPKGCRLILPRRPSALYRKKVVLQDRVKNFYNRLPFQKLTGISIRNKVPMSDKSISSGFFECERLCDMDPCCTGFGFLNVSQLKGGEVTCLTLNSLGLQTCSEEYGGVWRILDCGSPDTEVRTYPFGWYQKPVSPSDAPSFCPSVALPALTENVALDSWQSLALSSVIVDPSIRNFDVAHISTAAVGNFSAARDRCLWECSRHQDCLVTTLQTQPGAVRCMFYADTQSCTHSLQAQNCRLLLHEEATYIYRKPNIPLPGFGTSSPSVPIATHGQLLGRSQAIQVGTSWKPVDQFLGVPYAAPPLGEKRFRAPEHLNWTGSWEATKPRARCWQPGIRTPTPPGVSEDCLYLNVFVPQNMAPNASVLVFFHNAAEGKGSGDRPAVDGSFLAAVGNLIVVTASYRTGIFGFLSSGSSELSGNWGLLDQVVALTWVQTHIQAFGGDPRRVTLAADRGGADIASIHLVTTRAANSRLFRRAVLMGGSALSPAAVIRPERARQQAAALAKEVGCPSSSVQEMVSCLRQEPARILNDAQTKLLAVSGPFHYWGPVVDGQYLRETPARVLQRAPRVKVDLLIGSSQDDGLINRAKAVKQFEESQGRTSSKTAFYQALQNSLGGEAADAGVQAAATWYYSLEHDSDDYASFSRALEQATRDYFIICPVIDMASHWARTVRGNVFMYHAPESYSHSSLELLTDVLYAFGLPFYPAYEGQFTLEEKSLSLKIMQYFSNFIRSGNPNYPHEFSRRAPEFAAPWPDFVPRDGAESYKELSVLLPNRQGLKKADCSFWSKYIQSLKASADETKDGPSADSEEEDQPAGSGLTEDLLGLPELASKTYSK", "assay": "phage ELISA", "values": [
      {"binder": "B1", "binding result": "no binding (tested: 100 ug/ml coating)"},
      {"binder": "B2", "binding result": "no binding (tested: 100 ug/ml coating)"},
      {"binder": "B3", "binding result": "no binding (tested: 100 ug/ml coating)"}
    ]},
    {"target": "T2, ovalbumin (UniProt P01012 2-386)", "T2 sequence (looked up)": "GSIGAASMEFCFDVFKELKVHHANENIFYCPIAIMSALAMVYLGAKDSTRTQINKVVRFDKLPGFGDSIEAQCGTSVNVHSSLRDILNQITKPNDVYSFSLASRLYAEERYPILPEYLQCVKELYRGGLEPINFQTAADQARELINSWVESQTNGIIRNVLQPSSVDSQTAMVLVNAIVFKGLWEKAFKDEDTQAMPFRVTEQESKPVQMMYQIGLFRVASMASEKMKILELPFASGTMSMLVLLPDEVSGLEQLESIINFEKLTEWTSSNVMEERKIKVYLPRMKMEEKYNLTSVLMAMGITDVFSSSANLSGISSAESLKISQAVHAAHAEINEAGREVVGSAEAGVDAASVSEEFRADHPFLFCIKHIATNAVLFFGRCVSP", "assay": "phage ELISA", "values": [
      {"binder": "B1", "binding result": "no binding (tested: 100 ug/ml coating)"},
      {"binder": "B2", "binding result": "no binding (tested: 100 ug/ml coating)"},
      {"binder": "B3", "binding result": "no binding (tested: 100 ug/ml coating)"}
    ]}
  ]
}
